This is an account of results in patent publication US20110243941A1.

The target of this assay is wild type CH1-CH3 Fc fusion protein displayed on yeast (pYD-CH1) (human). Briefly: FACS titration 1.4 to 0.0006 µM on yeast-displayed Fc, MFI, nonlinear regression.

“soluble FcγRIIIA tetrameric complex (biotinylated FcγRIIIA-AVITAG on streptavidin-phycoerythrin) (from UniProt P08637 17-203) (receptor)” registered a Kd of 6 nM.

For orientation: Kd means the constant that tells how readily two partners part at equilibrium.
